From patent US8470780B2, “Methods and compositions related to targeting wounds, regenerating tissue, and tumors” (Sanford-Burnham Medical Research Institute, priority 2006, dated 2013)

Legend:
CHO-K cells = assay: CHO-K cell proliferation with decorins; type: cell-based, Chinese hamster; conditions: 0.3 μg/ml/day of decorins
Protocol: The effect of decorin preparations on CHO-K cell proliferation was determined as described previously (Yamaguchi 1990; Yamaguchi 1988). The cells were grown in media containing fetal bovine serum that had been dialyzed in a dialysis cassette (Pierce, Rockford, Ill.). The cells were plated in duplicate at a density of 2×10^4 cells per well in 24-well plates and cultured in 600 μl of culture media. Half of the medium was replaced daily with fresh medium containing decorin. Cells were collected by trypsinization, washed and resuspended in 1 ml of PBS containing 2 μg/ml of propidium iodide (PI) and 20,000 CountBright counting beads (Invitrogen, Carlsbad, Calif.), and analyzed by counting 1,000 beads in FACS. Cell number was also determined by hemocytometer.

[1] = system: full thickness skin wounds; assay: Accumulation of intravenously injected decorins in wound tissue (anti-6-histidine tag staining); type: in vivo, mice; conditions: daily intravenous injections Days 3-5; evaluated Day 5
Protocol: Mice with full thickness skin wounds, received daily intravenous injections as indicated on Days 3-5 after the wounding (n=4 per group, 2 wounds per animal). On Day 5, the presence of decorins was evaluated with anti-6-histidine tag antibody (which stains brown) by examining two sections from each wound.
Six 8-week-old male BALB/c mice were anesthetized with intraperitoneally-injected 2.5% avertin Skin was shaved, cleaned, and disinfected with betadine and 70% alcohol. All animal experiments received approval from the IACUC of Burnham Institute for Medical Research. Treatment trials were conducted on mice that had circular, 8 mm-diameter, full thickness (including panniculus carnosus muscle) excision wounds in the dorsal skin. […]
(§1) The treatments were started three days after wounding and consisted of daily tail vein injections. […] The ratio was reversed from Day 7 based on previously determined homing profiles of CRK and CAR phage to wounds at different time-points. The wounds were inspected and photographed daily, and scored for complete re-epithelialization. […]
Frozen sections were fixed in acetone for 10 min and pre-incubated with 0.5% blocking reagent for 1 hr (NEN Life Sciences, Boston, Mass.). […] The primary antibodies were detected with corresponding secondary antibodies, and each staining experiment included slides stained with species-matched immunoglobulins as negative controls. […]

[2] = system: full thickness excision wounds in the dorsal skin; assay: Skin wound healing treatment with decorins; type: in vivo, mice
Protocol: Next, the effect of the homing peptide decorins on wound healing was examined. The daily dose of 40 μg/day was chosen based on previous decorin studies (Seidler 2006; Yang 1999). The dose was doubled on Days 4-6, coincident with the peak in TGF-β expression in wounds (Brunner 2004; Yang 1999). The treatments were started on Day 3 after wounding, when granulation tissue first forms in wounds (Brunner 2004), and continued for 7,9, or 11 days in three independent treatment experiments. Several parameters commonly used to assess wound repair and scarring were measured (Ashcroft 1999; Cheon 2006; Shah 1995). […]
as §1
Image analysis and quantification of granulation tissue/wound area, and hyperproliferative epidermis were done using ImageJ program (NIH, Bethesda, […].). The wounds were cut in the middle, one section from each side of the wound was evaluated, and the average of these two values was used in the analysis. The length of hyperproliferative epidermis and size of the wound tissue were determined from the Masson trichrome stained tissue sections. […]

B1: decorin: recombinant his-tagged human decorin, small leucine-rich chondroitin sulfate proteoglycan (protein, UniProt P07585 31-359, looked up)
Decorin: DEASGIGPEVPDDRDFEPSLGPVCPFRCQCHLRVVQCSDLGLDKVPKDLPPDTTLLDLQNNKITEIKDGDFKNLKNLHALILVNNKISKVSPGAFTPLVKLERLYLSKNQLKELPEKMPKTLQELRAHENEITKVRKVTFNGLNQMIVIELGTNPLKSSGIENGAFQGMKKLSYIRIADTNITSIPQGLPPSLTELHLDGNKISRVDAASLKGLNNLAKLGLSFNSISAVDNGSLANTPHLRELHLDNNKLTRVPGGLAEHKYIQVVYLHNNNISVVGSSDFCPPGHNTKKASYSGVSLFSNPVQYWEIQPSTFRCVYVRSAIQLGNYK
modifications: His-tag
notes: recombinant his-tagged human decorin, small leucine-rich chondroitin sulfate proteoglycan
CHO-K cells
  inhibition of CHO-K cell proliferation: inhibited the proliferation of the CHO-K cells at high concentrations
[1]
  decorin staining in skeletal muscle underlying the skin wounds: No decorin-staining
  decorin staining in wounds: weakly positive for decorin staining
[2]; Day 14 after wounding
  change in granulation tissue/scar area: no statistically significant changes
[2]; equivalent doses
  prevention of scar formation: inactive
